Measurements taken from patent US6391584B1, “Expression-cloning method for identifying target proteins for eukaryotic tyrosine kinases and novel target proteins” (New York University Medical Center, priority 1991, dated 2002).

Target: T1, EGFR (Homo sapiens, UniProt P00533)
T1 construct: Full length EGFR was immunoprecipitated with Mab108, and allowed to autophosphorylate; expressed in transfected cells; host or cells: NIH-3T3 cells transfected with wild-type EGFR (HER14)
Assay: Binding of PLC-γ to immunoprecipitated, autophosphorylated full length EGFR; fraction remaining bound after washes
Details: Mean+/−SEM, n=4; anti PLC-γ blot with (125I)Protein A, bands quantitated in a γ counter
Experimental: FIG. 11 is a gel pattern showing that phosphorylation of PLC-γ reduces its binding to the EGF receptor. Full length EGFR was immunoprecipitated with Mab108, and allowed to autophosphorylate. Lysate from PLC-γ overexpressing 3T-P1 cells was added and mixed for 90 min at 4° C. After binding, ATP was added to one half of the samples allowing the PLC-γ molecules to be phosphorylated by the EGF receptor. SDS-PAGE sample buffer-was then added to one half of the EGFR-PLC-γ complexes (NO WASH, left panel) and directly loaded onto the 6% gel. The other half was washed three times with HNTG and then loaded on the gel (WASH, right panel. After running duplicate samples on SDS-PAGE, the proteins were transferred to nitrocellulose and probed with anti PLC-γ and (^125I)Protein A. The bands were subsequently cut from the nitrocellulose and quantitated in a γ counter. After three washes with HNTG, 50+/−5% (Mean+/−SEM, n=4) of the non-phosphorylated PLC-γ remained bound to the EGFR while only 22+/−4% of the phosphorylated PLC-γ remained (exposure time: 12 h).
The techniques used are described in several references from the present inventors, laboratory (Margolis, B. L. et al., J. Biol. Chem. 264: 10667-10671 (1989); Cell 57:1101-1107 (1989)). […]

PLC-γ remaining bound to the EGFR after three washes with HNTG: 22+/−4%
B1: phosphorylated PLC-γ: PLC-γ from 3T-P1 cell lysate phosphorylated by the EGF receptor after addition of ATP (protein, UniProt Q62077 2-1302, looked up)
1-phosphatidylinositol …: AGVATPCANGCGPGAPSEAEVLHLCRSLEVGTVMTLFYSKKSQRPERKTFQVKLETRQITWSRGADKIEGSIDIREIKEIRPGKTSRDFDRYQEDPAFRPDQSHCFVILYGMEFRLKTLSLQATSEDEVNMWIKGLTWLMEDTLQAATPLQIERWLRKQFYSVDRNREDRISAKDLKNMLSQVNYRVPNMRFLRERLTDLEQRSGDITYGQFAQLYRSLMYSAQKTMDLPFLETNALRTGERPEHCQVSLSEFQQFLLEYQGELWAVDRLQVQEFMLSFLRDPLREIEEPYFFLDELVTFLFSKENSVWNSQLDAVCPDTMNNPLSHYWISSSHNTYLTGDQFSSESSLEAYARCLRMGCRCIELDCWDGPDGMPVIYHGHTLTTKIKFSDVLHTIKEHAFVASEYPVILSIEDHCSIAQQRNMAQHFRKVLGDTLLTKPVDIAADGLPSPNQLRRKILIKHKKLAEGSAYEEVPTSVMYSENDISNSIKNGILYLEDPVNHEWYPHYFVLTSSKIYYSEETSSDQGNEDEEEPKEASSSTELHSSEKWFHGKLGAGRDGRHIAERLLTEYCIETGAPDGSFLVRESETFVGDYTLSFWRNGKVQHCRIHSRQDAGTPKFFLTDNLVFDSLYDLITHYQQVPLRCNEFEMRLSEPVPQTNAHESKEWYHASLTRAQAEHMLMRVPRDGAFLVRKRNEPNSYAISFRAEGKIKHCRVQQEGQTVMLGNSEFDSLVDLISYYEKHPLYRKMKLRYPINEEALEKIGTAEPDYGALYEGRNPGFYVEANPMPTFKCAVKALFDYKAQREDELTFTKSAIIQNVEKQDGGWWRGDYGGKKQLWFPSNYVEEMINPAVLEPEREHLDENSPLGDLLRGVLDVPACQIAIRPEGKNNRLFVFSISMPSVAQWSLDVAADSQEELQDWVKKIREVAQTADARLTEGKMMERRKKIALELSELVVYCRPVPFDEEKIGTERACYRDMSSFPETKAEKYVNKAKGKKFLQYNRLQLSRIYPKGQRLDSSNYDPLPMWICGSQLVALNFQTPDKPMQMNQALFMAGGHCGYVLQPSTMRDEAFDPFDKSSLRGLEPCVICIEVLGARHLPKNGRGIVCPFVEIEVAGAEYDSTKQKTEFVVDNGLNPVWPAKPFHFQISNPEFAFLRFVVYEEDMFSDQNFLAQATFPVKGLKTGYRAVPLKNNYSEDLELASLLIKIDIFPAKENGDLSPFSGISLRERASDASSQLFHVRAREGSFEARYQQPFEDFRISQEHLADHFDSRERSTSDGPSSATNLIEDPLHDKLWKCSL
modifications: tyrosine phosphorylated by EGF receptor
notes: PLC-γ from 3T-P1 cell lysate phosphorylated by the EGF receptor after addition of ATP
